Measured values taken from patent US20060110799A1, “Mitogen-activated protein kinase kinase MEK6 and methods of use thereof” (Signal Pharmaceuticals, Inc., priority 1995, published 2006).
Like-named read-outs stand apart in the source and are kept apart here.

Assays:
MEK6 = assay: immune complex kinase assay with GST-p38 substrate, HeLa cells transfected with epitope-tagged MEK6; type: cell-based, human; conditions: for stimulation of MEK6 (summary of Example 4): summary statement for transfected HeLa and COS cells
Procedure: Next, we examined whether MEK6 can activate p38 in vivo. An expression vector encoding epitope-tagged MEK6 (3xHA-MEK6-SRα3) was constructed by replacing serine in position 2 of MEK6 with alanine, adding sequence encoding three copies of a 10 amino acid hemagglutinin (HA) epitope to the N-terminus of MEK6 and ligating the resulting cDNA into SRα3. HeLa cells, cultured in Dulbecco's modified Eagle medium supplemented with 10% fetal calf serum, 500 mg/l L-glutamine, and antibiotics, were transiently transfected with 3xHA-MEK6 using calcium phosphate-mediated DNA precipitation (Graham and van der Eb, Virology 52:456-467 (1973)). Twenty-four hours later cells were stimulated with anisomycin (50 ng/mL) or UV (254 nm; 120 J/m^2) for 0-120 minutes. Cell lysates were prepared by solubilization in lysis buffer as described (Derijard et al., Cell 76:1025-1037 (1994)), and protein concentration of lysates was determined by Bradford assay (Bradford, Ann. Biochem. 72:248-254(1976)).
In an initial experiment we investigated the time course of MEK6 activation by anisomycin and UV treatment of transfected cells. Cell lysates were used in an immune complex kinase assay with GST-p38 substrate, performed as described above except that 30 μg cell lysate was immunoprecipitated for 2 hours with the anti-HA antibody 12CA5 (Boehringer-Mannheim Corp., Indianapolis, Ind.) and then incubated with 1 μg of recombinant substrate. Reactions were separated by SDS-PAGE and quantitated with a phosphorimager and ImageQuant software. The relative level of MEK6 activity in untreated cells was arbitrarily assigned 1.
To investigate the pattern of regulation of MEK6, cells were transiently transfected with 3xHA-MEK6 (as described in Example 3) and treated with various stimulators of the MAPK pathway.
MEKK has been described as a MAPKKK leading to the phosphorylation and activation of JNKK (Lin et al., Science 268:286-290 (1995); Minden et al., Science 266:1719-1722 (1994); Yan et al., Nature 372:798-800 (1994)). In an initial experiment, HeLa (FIG. 7A) or COS (FIG. 7B) cells were transiently transfected with epitope-tagged MEK6 (lanes 1 to 12) or the empty expression vector SRα3 (lanes 13 to 16) and treated for 45 min with IL-1β (10 ng/ml), TNF-α (10 ng/ml), EGF (50 ng/ml), NGF (50 ng/ml), PMA (50 ng/ml), Anisomycin (50 ng/ml), Cycloheximide (CX, 50 ng/ml), Arsenite (200 μM), NaCl (200 μM), UV (254 nm; 120 J/m^2) or cotransfected with 1000 ng CMV5-MEKK as indicated. Cell lysates were used in an immune complex kinase assay with GST-p38 substrate as described in Example 3. MEK6 activity was quantitated with a phosphorimager and ImageQuant software.

MEK6 / p38 / ATF2 = assay: coupled immune complex kinase assay, MEK6 from anisomycin-treated HeLa cells, recombinant p38 and ATF2; type: cell-based, human; conditions: anisomycin 45 minutes, 50 ng/mL, FIG. 6
Procedure: To determine whether the increase in p38 phosphorylation by activated MEK6 augments p38 kinase activity a coupled immune complex kinase assay was performed. Epitope-tagged MEK6 was isolated from anisomycin-treated HeLa cells (45 minutes; 50 ng/mL) and subjected to two subsequent kinase reactions as described above using recombinant p38, ATF2 and GST alone. […] Similar results have been found with MEK6 activated by UV treatment of cells (data not shown). […] This phosphorylation event was slightly augmented by anisomycin in the presence of MEK6 (FIG. 6, compare lanes 3 and 4 with lanes 11 and 12). This protein was not observed in in vitro kinase assays, and therefore is most likely a contamination of the immunoprecipitation.

GST-JNK2 = target: T1, GST-JNK2 (Homo sapiens, UniProt P45984); assay: in vitro kinase assay with bacterially expressed MAPK substrate; type: biochemical; conditions: 0.5 μg recombinant kinase, 1 μg substrate, 50 nM [γ-32P]ATP
T1 construct: ligating the respective cDNA fragments encoding amino acid 1 through the stop codon into pGEX-KG; made in house; host or cells: bacteria (pGEX-KG)
Procedure: (§1) A MEK6 kinase assay may be performed substantially as described in Derijard et al., Cell 76:1025-1037 (1994) and Lin et al., Science 268:286-290 (1995), with minor modifications. Briefly, a polypeptide variant of MEK6 may be incubated with p38 and [γ-^32P]ATP in a suitable buffer (such as 20 mM HEPES (pH 7.6), 5 mM MnCl2, 10 mM MgCl2, 1 mM dithiothreitol) for 30 minutes at 30° C. In general, approximately 0.5 μg of the variant and 1 μg recombinant p38, with 50 nM [γ-^32P]ATP, is sufficient. Proteins may then be separated by SDS-PAGE on 10% gels and subjected to autoradiography. Incorporation of [^32P]phosphate into p38 may be quantitated using techniques well known to those of ordinary skill in the art, such as with a phosphorimager. To evaluate the substrate specificity of polypeptide variants, a kinase assay may generally be performed as described above except that other MAPK substrates (i.e., JNK2 and/or ERK) are substituted for the p38.
(§2) cDNAs encoding MEK6 and MKK3 were subcloned into a bacterial GST-fusion protein expression vector. GST-MEK6 was constructed by ligating a 1.3 kb DNA fragment encoding amino acid 1 through the stop codon of MEK6 with a serine to alanine substitution of amino acid 2 into pGEX-KG (Guan and Dixon, Ann. Biochem. 192:262-267 (1991)). Similarly, GST-MKK3, GST-p38 and GST-JNK2 were constructed by ligating the respective cDNA fragments encoding amino acid 1 through the stop codon into pGEX-KG. Human p38 cDNA (Genbank accession number U10871) was cloned by PCR amplification of a Jurkat cDNA library with primers against the 5′ end (5′-[…]-3′) (SEQ ID NO:5) and 3′ end (5′-[…]-3′) (SEQ ID NO:6) of the published human p38 sequence. Each strand of the PCR fragment was sequenced several times with an ABI 373 Automated Sequencer. His-ERK1[K52R] was prepared as described previously (Robbins et al., J. Biol. Chem. 268:5097-5106 (1993)).
(§3) We investigated the substrate specificity of MEK6 in an in vitro kinase assay with bacterially expressed MAPK substrates (GST-JNK2, GST-p38 and His-ERK1[K52R]). The assays were performed as previously described (Derijard et al., Cell 76:1025-1037 (1994); Lin et al., Science 268:286-290 (1995)) with minor modifications. 0.5 μg recombinant kinase and 1 μg recombinant substrate were used, and the concentration of [γ-^32P]ATP was 50 nM. Phosphorylated proteins were separated by SDS-PAGE on 10% gels and then subjected to autoradiography. Incorporation of [^32P]phosphate was quantitated with a phosphorimager and ImageQuant software (Molecular Dynamics, Inc., Sunnyvale, Calif.).

GST-p38 [1] = target: T2, GST-p38 (Homo sapiens, UniProt Q16539, S2A); assay: as above; type: biochemical; conditions: 0.5 μg recombinant kinase, 1 μg substrate, 50 nM [γ-32P]ATP
T2 construct: ligating the respective cDNA fragments encoding amino acid 1 through the stop codon into pGEX-KG; made in house; host or cells: bacteria (pGEX-KG)
Procedure: as §1, §2, §3

GST-p38 [2] = target: T3, GST-p38 (Homo sapiens, UniProt P52564, S2A); assay: as above; type: biochemical; conditions: in vitro kinase assay, compared to MKK3
T3 construct: ligating the respective cDNA fragments encoding amino acid 1 through the stop codon into pGEX-KG; made in house; host or cells: bacteria (pGEX-KG)
T3 sequence (P52564 1-334 S2A): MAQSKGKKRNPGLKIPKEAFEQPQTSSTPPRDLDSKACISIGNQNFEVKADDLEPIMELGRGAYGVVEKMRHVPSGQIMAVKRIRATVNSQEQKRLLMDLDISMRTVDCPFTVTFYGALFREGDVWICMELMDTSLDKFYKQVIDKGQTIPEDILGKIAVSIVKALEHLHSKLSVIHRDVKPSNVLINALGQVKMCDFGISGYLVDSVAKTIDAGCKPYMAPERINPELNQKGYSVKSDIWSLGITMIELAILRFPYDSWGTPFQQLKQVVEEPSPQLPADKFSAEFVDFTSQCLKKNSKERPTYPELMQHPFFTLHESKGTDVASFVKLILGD
Procedure: as §1, §2, §3

His-ERK1[K52R] = assay: as above; type: biochemical; conditions: 0.5 μg recombinant kinase, 1 μg substrate, 50 nM [γ-32P]ATP
Procedure: as §1, §2, §3

[3] = tested on: GST-JNK2 / GST-cJun(1-79); assay: coupled in vitro kinase assay (JNK2, GST-cJun(1-79)); type: biochemical; conditions: FIG. 3B lanes 1 to 3
GST-p38 / GST-ATF2 = assay: coupled in vitro kinase assay (p38, GST-ATF2); type: biochemical, human
Procedure: To determine whether p38 phosphorylation results in activation, a coupled in vitro kinase assay may be performed using a substrate for p38, such as ATF2, with or without an epitope tag. ATF2 for use in such an assay may be prepared as described in Gupta et al., Science 257:389-393 (1995). Briefly, following phosphorylation of p38 as described above, isolation of the protein by binding to GSH-sepharose and washing with 20 mM HEPES (pH 7.6), 20 mM MgCl2, the p38 (0.1-10 μg) may be incubated with ATF2 (0.1-10 μg) and [γ-^32P]ATP (10-500 nM) in a buffer containing 20 mM HEPES (pH 7.6), 20 mM MgCl2. It should be noted that alternative buffer may be used and that buffer composition can vary without significant effects on kinase activity. Reactions may be separated by SDS-PAGE, visualized by autoradiography and quantitated using any of a variety of known techniques. Activated p38 will be capable of phosphorylating ATF2 at a level of at least 5% above background using this assay.
To determine whether phosphorylation of p38 is an activating event we analyzed the phosphorylation of recombinant ATF2 (a substrate for p38) in a coupled in vitro kinase assay. […] Reactions were separated by SDS-PAGE and visualized by autoradiography.

[4] = HeLa cells, 45 min, anisomycin 50 ng/ml, NaCl 200 μM, IL-1β 10 ng/ml, EGF 50 ng/ml, NGF 50 ng/ml, CMV5-MEKK 1000 ng cotransfected, FIG. 7A
[5] = HeLa cells, anisomycin 50 ng/mL, FIG. 4

T2 sequence (Q16539 whole entry S2A, the tested form may be a part): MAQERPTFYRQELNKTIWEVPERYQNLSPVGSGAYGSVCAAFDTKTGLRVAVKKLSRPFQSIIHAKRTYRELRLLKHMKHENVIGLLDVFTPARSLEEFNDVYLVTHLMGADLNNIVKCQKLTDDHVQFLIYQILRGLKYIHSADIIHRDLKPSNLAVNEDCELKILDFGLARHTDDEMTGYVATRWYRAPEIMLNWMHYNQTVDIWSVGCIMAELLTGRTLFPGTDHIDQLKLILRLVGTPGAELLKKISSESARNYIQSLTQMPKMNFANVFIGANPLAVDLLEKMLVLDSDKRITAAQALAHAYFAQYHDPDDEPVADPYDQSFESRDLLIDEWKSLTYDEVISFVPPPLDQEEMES

## [Cl-].[Na+] [NaCl]
MEK6
  induction of MEK6 kinase activity: strongest inducers

## COc1ccc(C[C@H]2NC[C@H](O)[C@H]2OC(C)=O)cc1 [anisomycin]
MEK6; [4]
  induction of MEK6 kinase activity: strongest inducers
MEK6; [5]
  time at which MEK6 activation was first observed after treatment: 10 min
  time of peak MEK6 activation after treatment: 40 min
MEK6
  stimulation of MEK6 (summary of Example 4): strongly activated
MEK6 / p38 / ATF2
  phosphorylation of ATF2 after anisomycin treatment: increased phosphorylation of ATF2 only when MEK6 and p38 were present

## C[C@@H]1C[C@@H]([C@H](O)CC2CC(=O)NC(=O)C2)C(=O)[C@@H](C)C1 [cycloheximide]
MEK6
  stimulation of MEK6 (summary of Example 4): did not significantly activate MEK6

## EGF: strong inducer of the ERK pathway
MEK6; [4]
  induction of MEK6 kinase activity: did not activate MEK6
MEK6
  stimulation of MEK6 (summary of Example 4): did not stimulate MEK6

## IL-1β: cytokine stimulator
MEK6; [4]
  induction of MEK6 kinase activity: weak induction

## NGF: strong inducer of the ERK pathway
MEK6; [4]
  induction of MEK6 kinase activity: did not activate MEK6
MEK6
  stimulation of MEK6 (summary of Example 4): did not stimulate MEK6

B1: MEK6: human mitogen-activated protein kinase kinase, SEQ ID NO:2, 334 amino acids; used as GST fusion or HA epitope-tagged (protein)
chain: SQSKGKKRNPGLKIPKEAFEQPQTSSTPPRDLDSKACISIGNQNFEVKADDLEPIMELGRGAYGVVEKMRHVPSGQIMAVKRIRATVNSQEQKRLLMDLDISMRTVDCPFTVTFYGALFREGDVWICMELMDTSLDKFYKQVIDKGQTIPEDILGKIAVSIVKALEHLHSKLSVIHRDVKPSNVLINALGQVKMCDFGISGYLVDSVAKTIDAGCKPYMAPERINPELNQKGYSVKSDIWSLGITMIELAILRFPYDSWGTPFQQLKQVVEEPSPQLPADKFSAEFVDFTSQCLKKNSKERPTYPELMQHPFFTLHESKGTDVASFVKLILGD
modifications: GST fusion or HA tag; homo sapien
GST-JNK2
  phosphorylation of JNK2 by MEK6: none of the other substrates
GST-p38 [1]
  phosphorylation of p38 by MEK6: efficiently phosphorylated p38
GST-p38 [2]
  autophosphorylation of MEK6: very low compared to MKK3
His-ERK1[K52R]
  phosphorylation of ERK1[K52R] by MEK6: none of the other substrates
[3]
  phosphorylation of Jun, directly or in combination with JNK2: did not cause increased phosphorylation of Jun
GST-p38 / GST-ATF2; FIG. 3B lane 5
  phosphorylation of ATF2 by p38 activated by MEK6: strongly phosphorylated
GST-p38 / GST-ATF2; without p38
  direct phosphorylation of ATF2 by MEK6: not directly phosphorylated
